# Reference: patent US20200165335A1 (Seagen, published 2020)
# Where a chain is given by its changes, count along the chain named. In names and notes the source's numbering stands.
# T1: cynomolgus monkey LIV-1 (cynomolgus monkey, UniProt Q5R9M9 28-743 (Pongo abelii entry))
# T1 construct: Recombinant on transfected CHO cells; also called cyno LIV-1; cyLIV-1
# T1 chain: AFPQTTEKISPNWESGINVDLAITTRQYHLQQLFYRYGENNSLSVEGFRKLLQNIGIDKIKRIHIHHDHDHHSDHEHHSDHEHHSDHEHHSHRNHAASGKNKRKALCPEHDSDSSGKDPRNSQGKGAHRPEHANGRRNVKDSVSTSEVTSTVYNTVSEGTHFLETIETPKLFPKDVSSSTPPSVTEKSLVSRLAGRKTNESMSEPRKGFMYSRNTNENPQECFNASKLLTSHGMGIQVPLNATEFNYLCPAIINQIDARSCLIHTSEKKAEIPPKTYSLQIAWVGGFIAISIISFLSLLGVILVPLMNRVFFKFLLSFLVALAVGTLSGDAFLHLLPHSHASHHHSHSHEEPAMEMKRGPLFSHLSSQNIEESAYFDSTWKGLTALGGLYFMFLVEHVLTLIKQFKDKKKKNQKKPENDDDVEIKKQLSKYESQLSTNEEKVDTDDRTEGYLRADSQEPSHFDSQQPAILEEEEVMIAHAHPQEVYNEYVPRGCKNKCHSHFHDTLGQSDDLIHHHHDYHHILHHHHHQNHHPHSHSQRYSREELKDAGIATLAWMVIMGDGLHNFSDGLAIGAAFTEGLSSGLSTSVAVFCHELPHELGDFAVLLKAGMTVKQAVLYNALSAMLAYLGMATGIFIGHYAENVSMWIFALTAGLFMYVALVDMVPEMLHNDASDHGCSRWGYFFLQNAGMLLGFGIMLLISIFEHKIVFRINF
# T2: human LIV-1 (UniProt Q13433 29-755)
# T2 chain: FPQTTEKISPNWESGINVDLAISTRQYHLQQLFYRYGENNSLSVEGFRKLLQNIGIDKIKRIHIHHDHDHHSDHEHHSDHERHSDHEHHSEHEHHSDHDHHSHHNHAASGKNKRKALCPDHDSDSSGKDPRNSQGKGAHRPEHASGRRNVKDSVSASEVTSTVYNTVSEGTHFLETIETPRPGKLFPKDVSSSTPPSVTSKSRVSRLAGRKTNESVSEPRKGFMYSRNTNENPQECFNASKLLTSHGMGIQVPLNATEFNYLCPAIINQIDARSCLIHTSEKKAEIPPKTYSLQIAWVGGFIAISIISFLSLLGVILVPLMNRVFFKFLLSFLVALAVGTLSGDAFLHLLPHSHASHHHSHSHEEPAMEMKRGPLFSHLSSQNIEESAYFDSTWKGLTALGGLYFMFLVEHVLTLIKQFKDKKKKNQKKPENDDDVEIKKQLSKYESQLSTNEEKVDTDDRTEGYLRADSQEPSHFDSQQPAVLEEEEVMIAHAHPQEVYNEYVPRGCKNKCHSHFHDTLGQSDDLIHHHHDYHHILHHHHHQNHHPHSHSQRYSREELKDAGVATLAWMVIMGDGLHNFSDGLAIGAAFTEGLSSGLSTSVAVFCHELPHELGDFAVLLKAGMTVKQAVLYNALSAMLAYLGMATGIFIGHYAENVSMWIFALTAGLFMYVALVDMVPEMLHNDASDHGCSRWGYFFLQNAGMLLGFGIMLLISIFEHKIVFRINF
# T3: human LIV-1 (human, UniProt Q13433 29-755)
# T3 construct: also called hLIV-1; Q13433
# T3 sequence: T2 chain
# B1: humanized BR2-14a antibody HBLB S239C (antibody, human IgG1, kappa, V domains shown)
# VH: QVQLVQSGAEVKKPGASVKVSCKASGYTIEDYYMHWVRQAPGQGLEWMGWIDPENGDTEYAPTFQGRVTMTRDTSINTAYMELSRLRSDDTAVYYCARHDAHYGTWFAYWGQGTLVTVSS
# VL: DVVMTQSPLSLPVTLGQPASISCRSSQSIIRNDGNTYLEWYQQRPGQSPRRLIYRVSNRFSGVPDRFSGSGSGTDFTLKISRVEAEDVGVYYCFQGSHVPYTFGGGTKVEIKR
# notes: also called LIV-14d; hLIV-14 HBLB S239C
# B2: humanized BR2-14a antibody HELE (antibody, V domains shown)
# VH: B1 VH with Y27F, T28N, M48I, R67K, V68A, R72A, A97N, R98V
# VL: B1 VL with Y41F, R51L
# notes: also called hLIV-1 HE + hLIV-1 LE
# B3: humanized BR2-14a antibody HELD (antibody, V domains shown)
# VH: B1 VH with Y27F, T28N, M48I, R67K, V68A, R72A, A97N, R98V
# VL: B1 VL with Y41F, R50K
# notes: also called hLIV-1 HE + hLIV-1 LD
# B4: humanized BR2-14a antibody HELC (antibody, V domains shown)
# VH: B1 VH with Y27F, T28N, M48I, R67K, V68A, R72A, A97N, R98V
# VL: B1 VL with Y41F, Q42L
# notes: also called hLIV-1 HE + hLIV-1 LC
# B5: humanized BR2-14a antibody HCLA (antibody, V domains shown)
# VH: B1 VH with I29F, E30T, R67K, V68A, R72A, N77S
# VL: B1 VL with Y41F
# notes: also called hLIV-1 HC + hLIV-1 LA
# B6: humanized BR2-14a antibody HDLA (antibody, V domains shown)
# VH: B1 VH with Y27F, I29F, E30T, N77S, A97N, R98V
# VL: B1 VL with Y41F
# notes: also called hLIV-1 HD + hLIV-1 LA
# B7: humanized BR2-14a antibody HCLC (antibody, V domains shown)
# VH: B1 VH with I29F, E30T, R67K, V68A, R72A, N77S
# VL: B1 VL with Y41F, Q42L
# notes: also called hLIV-1 HC + hLIV-1 LC
# B8: humanized BR2-14a antibody HDLE (antibody, V domains shown)
# VH: B1 VH with Y27F, I29F, E30T, N77S, A97N, R98V
# VL: B1 VL with Y41F, R51L
# notes: also called hLIV-1 HD + hLIV-1 LE
# B9: humanized BR2-14a antibody HCLE (antibody, V domains shown)
# VH: B1 VH with I29F, E30T, R67K, V68A, R72A, N77S
# VL: B1 VL with Y41F, R51L
# notes: also called hLIV-1 HC + hLIV-1 LE
# B10: humanized BR2-14a antibody HDLC (antibody, V domains shown)
# VH: B1 VH with Y27F, I29F, E30T, N77S, A97N, R98V
# VL: B1 VL with Y41F, Q42L
# notes: also called hLIV-1 HD + hLIV-1 LC
# B11: humanized BR2-14a antibody HBLE (antibody, V domains shown)
# VH: B1 VH
# VL: B1 VL with Y41F, R51L
# notes: also called hLIV-1 HB + hLIV-1 LE
# B12: humanized BR2-14a antibody HELF (antibody, V domains shown)
# VH: B1 VH with Y27F, T28N, M48I, R67K, V68A, R72A, A97N, R98V
# VL: B1 VL with Q42L, R44K, R50K, R51L
# notes: also called hLIV-1 HE + hLIV-1 LF
# B13: humanized BR2-22a antibody HALF (antibody, V domains shown)
# VH: B1 VH with I29F, E30T, A61G, T63K, N77S, D100N
# VL: DVVMTQSPLSLPVTLGQPASISCRSSQSLLHSSGNTYLEWYLQRPGQSPKPLIYKISTRFSGVPDRFSGSGSGTDFTLKISRVEAEDVGVYYCFQGSHVPYTFGGGTKVEIKR
# notes: also called hLIV-22 HA + hLIV-22 LF
# B14: humanized BR2-22a antibody HELG (antibody, V domains shown)
# VH: QVQLVQSGAEVKKPGASVKVSCKASGLNIEDYYMHWVRQAPGQGLEWIGWIDPENGDTEYGPKFQGKATMTADTSINTAYMELSRLRSDDTAVYYCTVHNAHYGTWFAYWGQGTLVTVSS
# VL: B13 VL with L42Q, K50R
# notes: also called hLIV-22 HE + hLIV-22 LG
# B15: humanized BR2-22a antibody HELF (antibody, V domains shown)
# VH: B14 VH
# VL: B13 VL
# notes: 15 backmutations; also called hLIV-22 HE + hLIV-22 LF; HELF historic control
# B16: humanized BR2-22a antibody HFLF (antibody, V domains shown)
# VH: B1 VH with Y27L, A61G, T63K, N77S, R98V, D100N
# VL: B13 VL
# notes: also called hLIV-22 HF + hLIV-22 LF
# B17: humanized BR2-22a antibody HBLB (antibody, V domains shown)
# VH: B1 VH with A61G, T63K, D100N
# VL: B13 VL with L42Q, K50R, P51R
# notes: Not the same molecule as HBLB of the BR2-14a series (hLIV14); also called hLIV-22 HB + hLIV-22 LB
# B18: humanized BR2-22a antibody HCLD (antibody, V domains shown)
# VH: B14 VH with L27Y, N28T, I29F, E30T, I48M, N77S, T97A, V98R
# VL: B13 VL with Y41F, L42Q, P51R
# notes: also called hLIV-22 HC + hLIV-22 LD
# B19: humanized BR2-22a antibody HELC (antibody, V domains shown)
# VH: B14 VH
# VL: B13 VL with Y41F, K50R, P51R
# notes: also called hLIV-22 HE + hLIV-22 LC
# B20: humanized BR2-22a antibody HDLF (antibody, V domains shown)
# VH: B14 VH with N28T, I29F, E30T, I48M, K67R, A68V, A72R, N77S
# VL: B13 VL
# notes: also called hLIV-22 HD + hLIV-22 LF
# B21: humanized BR2-22a antibody HFLG (antibody, V domains shown)
# VH: B1 VH with Y27L, A61G, T63K, N77S, R98V, D100N
# VL: B13 VL with L42Q, K50R
# notes: also called hLIV-22 HF + hLIV-22 LG
# B22: humanized BR2-22a antibody HCLC (antibody, V domains shown)
# VH: B14 VH with L27Y, N28T, I29F, E30T, I48M, N77S, T97A, V98R
# VL: B13 VL with Y41F, K50R, P51R
# notes: also called hLIV-22 HC + hLIV-22 LC
# B23: humanized BR2-22a antibody HBLF (antibody, V domains shown)
# VH: B1 VH with A61G, T63K, D100N
# VL: B13 VL
# notes: also called hLIV-22 HB + hLIV-22 LF
# B24: humanized BR2-22a antibody HGLF (antibody, V domains shown)
# VH: B1 VH with Y27L, A61G, T63K, R98V, D100N
# VL: B13 VL
# notes: also called hLIV-22 HG + hLIV-22 LF
# B25: humanized BR2-22a antibody HELA (antibody, V domains shown)
# VH: B14 VH
# VL: B13 VL with Y41F, L42Q, K50R, P51R
# notes: also called hLIV-22 HE + hLIV-22 LA
# B26: humanized BR2-22a antibody HELE (antibody, V domains shown)
# VH: B14 VH
# VL: B13 VL with Y41F, L42Q, K50R
# notes: also called hLIV-22 HE + hLIV-22 LE
# Biological target: T1, cynomolgus monkey LIV-1
# Test: EC50 determination, CHO cells expressing recombinant cyno LIV-1
# Description: (§1) 1×10⁵ CHO cells expressing recombinant cyno LIV-1 in PBS were aliquoted in each well of a 96-well v-bottom plates on ice. […] Cells were pelleted and washed 3 times with PBS. The cells were pelleted and resuspended in 125 μL of PBS/BSA. Fluorescence was analyzed by flow cytometry, using percent of saturated fluorescent signal to determine percent labeled murine LIV-1 mAb bound and to subsequently extrapolate the EC50 by fitting the data to a sigmoidal dose-response curve with variable slope.
row,binding result,Binder
1,binds,B1

# Biological target: T2, human LIV-1
# Test: competition binding on CHO hLIV1 cells
row,EC50 [µg/mL],Binder
1,0.419,B1

# Biological target: T3, human LIV-1
# Test: comparison of the EC50s of Table 3, CHO cells expressing human LIV-1
# Description: as §1, with “recombinant human” for “recombinant cyno”, “in PBS/BSA” for “in PBS”, “aliquoted into” for “aliquoted in”, “with PBS/BSA.” for “with PBS.”
row,fold better binding than the next humanized antibody HBLF [fold],Binder
1,≥ 2,B2

# Biological target: T3, human LIV-1
# Test: competition flow cytometry, CHO cells expressing human LIV-1, vs 5 nM AF647-labelled BR2-14a
# Description: as §1, with “recombinant human” for “recombinant cyno”, “in PBS/BSA” for “in PBS”, “aliquoted into” for “aliquoted in”, “with PBS/BSA.” for “with PBS.”
EC50 [µg/mL],Binder,binding result
24.2,B3,
0.3,B2,
,B4,no binding (tested: 0.038 nM to 600 nM tested)
,B5,no binding (tested: 0.038 nM to 600 nM tested)
,B6,no binding (tested: 0.038 nM to 600 nM tested)
,B7,no binding (tested: 0.038 nM to 600 nM tested)
,B8,no binding (tested: 0.038 nM to 600 nM tested)
,B9,no binding (tested: 0.038 nM to 600 nM tested)
,B10,no binding (tested: 0.038 nM to 600 nM tested)
,B11,no binding (tested: 0.038 nM to 600 nM tested)
1.5,B12,

# Biological target: T3, human LIV-1
# Test: competition flow cytometry, CHO cells expressing recombinant LIV-1, vs 5 nM AF647-labelled BR2-22a
# Description: 1×10⁵ CHO cells expressing recombinant LIV-1 in PBS were aliquoted into each well of a 96-well v-bottom plates on ice. […] Cells were pelleted and washed 3 times with PBS. The cells were then pelleted and resuspended in 125 μL of PBS/BSA. Fluorescence was analyzed by flow cytometery, using percent of saturated fluorescent signal to determine percent labeled humanized BR2-22a antibody bound and to subsequently extrapolate the EC50 by fitting the data to a sigmoidal dose-response curve with variable slope.
# All permutations of these five heavy chains and six light chains were then tested in a competition assay compared with BR2-22a (see FIG. 17).
EC50 [µg/mL],Binder,binding result
33.2,B13,
0.2,B14,
0.3,B15,
0.8,B16,
4.9,B17,
,B18,no binding (tested: 0.038 nM to 600 nM tested)
65.7,B19,
14.4,B20,
0.8,B21,
,B22,no binding (tested: 0.038 nM to 600 nM tested)
6.5,B23,
0.4,B24,
68.2,B25,
25.1,B26,
